Reference: patent US20240360195A1 (HELMHOLTZ ZENTRUM M NCHEN DEUTSCHES FORSCHUNGSZENTRUM F R …, published 2024)

Target: T1, human carbonic anhydrase XII (CA12) on A549 lung cancer cells (human, UniProt O43570 25-354)
T1 construct: whole, on cells; No recombinant protein was used; also called CA-XII; CA XII
Assay: flow cytometry on A549 cells, serial dilution, Cy5-labeled donkey anti-human IgG secondary, pH 7.4
Procedure: 50.000 A549 cells were incubated with a serial dilution of Monomers or Dimers (6A10). After washing, cells were incubated with a Cy5-labeled secondary antibody (donkey anti-human IgG light and heavy chain). Binding of the secondary antibody was analyzed with a BD FACSCanto and the DIVA software. RU=relative light units.
After washing, cells were incubated with a Cy5-labeled secondary antibody (donkey anti-human IgG light and heavy chain). Binding of the secondary antibody was analyzed with a BD FACSCanto and the DIVA software. RU=relative light units.
CA12-positive A549 cells were incubated with different amounts of Fab6A10 dimers or Fab6A 10 monomers at the indicated pH, followed by an incubation of a suitable Cy5-labeled secondary antibody at neutral pH (approx. 7.2).

T1 sequence (O43570 25-354): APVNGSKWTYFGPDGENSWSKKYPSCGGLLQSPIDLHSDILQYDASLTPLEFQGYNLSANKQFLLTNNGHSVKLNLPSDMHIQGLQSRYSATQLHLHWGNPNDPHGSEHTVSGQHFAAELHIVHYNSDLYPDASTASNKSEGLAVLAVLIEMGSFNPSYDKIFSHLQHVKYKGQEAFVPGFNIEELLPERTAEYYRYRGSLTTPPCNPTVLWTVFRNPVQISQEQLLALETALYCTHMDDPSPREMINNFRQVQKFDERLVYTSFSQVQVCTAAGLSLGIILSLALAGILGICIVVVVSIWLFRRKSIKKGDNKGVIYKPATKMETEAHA

- binding result: binds
B1: Fab6A10 dimer (other)
heavy: QVQLKESGPGLVQPSETLSLTCTVSGFSLTTYSVSWVRQPSGKGPEWMGRMWYDGDTVYNSALKSRLSISRDTSKNQVFLKMNSLETDETGTYYCTRDFGYFDGSSPFDYWGQGVMVTVSSASTKGPSVFPLAPSSKSTSGGTAALGCLVKDYFPEPVTVSWNSGALTSGVHTFPAVLQSSGLYSLSSVVTVPSSSLGTQTYICNVNHKPSNTKVDKKVEPKSCDKTHT
light: RCPVDIVLTQSPATLSVTPGESVSLSCRASQGISTSIHWYQQKSNESPRLLIKFASQSISGIPSRFSGSGSGTDFTLSINRVESEDFSVYFCQQTYSLPYTFGAGTKLELKRTVAAPSVFIFPPSDEQLKSGTASVVCLLNNFYPREAKVQWKVDNALQSGNSQESVTEQDSKDSTYSLSSTLTLSKADYEKHKVYACEVTHQGLSSPVTKSFNRGEC
modifications: additional non-naturally occurring cysteine at the N-terminus of the VL region (N-terminus RCPVDIVLTQ..., SEQ ID NO: 18) forms a disulfide bond with the same cysteine of the second Fab monomer
notes: also called 6A10 Fab dimers; 6A10Fab dimers
